Source: paper PMC3361975

B1: PTDH ortholog from R. metallidurans (Cupriavidus metallidurans CH34) (protein)
chain: MNHRKIVVTQPVHEEVLRKLQAEGEVIMNPGPDPWSPSQLREYLVDADAMMAFMTDSVTKESLLNAPRLKTISCALKGYDNFDLRACAQAGVSVTFVPDLLTEPTAELAIGLAIAAGRNVLQGDAATRAGYSGWRPALYGTGLHGSVASVIGLGKVGQAILARLAGFGCARLLGVDPSVRLDQVELVTLDEAVSTSDYVFLAVPLVSDTRHLVDSRMLQLSKKGQILVNVGRGSVVDERAVVDALANEQLGAYAADVYEMEDWLLPDRPREIHPGLTNNARTVLTPHIGSAVRRVRFEIEMRAAENLVRSLRGESLSDVAVEASAAA
B2: PTDH ortholog from N. punctiforme (Nostoc punctiforme PCC 73102) (protein)
chain: MKPKVVITHWVHPEIITNLSEYCEVVANPTRETLPREEILKLAQDAEALMVFMPDRIDEAFLKACPKLKIIAGALKGYDNFDVDACTRQGIWFTIVPSLLAVPTAELTIGLIIGLARQMLLGDRLIRQGTFAGWRPHLYGMGLANRTLGIVGMGSLGQALAQRLSSFEMNLIYTDAIPLPKEKAAAWCLSQVSLDTLLATSDFVVLMVPLQPETFHLINEKSLARMKPGSFLINPCRGSVVDEQAVSDALASGHLAGYAADVFELEDWARSDRPSKIPPSLLEKQDQTFFTPHLGSAVDDLRYDIAIEASQNILQVLQGHSPQGAINCPS
B3: wt-PTDH (P. stutzeri) (Stutzerimonas stutzeri) (protein)
chain: MLPKLVITHRVHDEILQLLAPHCELMTNQTDSTLTREEILRRCRDAQAMMAFMPDRVDADFLQACPELRVVGCALKGFDNFDVDACTARGVWLTFVPDLLTVPTAELAIGLAVGLGRHLRAADAFVRSGEFQGWQPQFYGTGLDNATVGILGMGAIGLAMADRLQGWGATLQYHEAKALDTQTEQRLGLRQVACSELFASSDFILLALPLNADTQHLVNAELLALVRPGALLVNPCRGSVVDEAAVLAALERGQLGGYAADVFEMEDWARADRPRLIDPALLAHPNTLFTPHIGSAVRAVRLEIERCAAQNIIQVLAGARPINAANRLPKAEPAAC

Legend:
purified protein [1] = substrate: NC(=O)c1ccc[n+]([C@@H]2O[C@H](COP(=O)(O)OP(=O)(O)OC[C@H]3O[C@@H](n4cnc5c(N)ncnc54)[C@H](O)[C@@H]3O)[C@@H](O)[C@H]2O)c1; assay: purified protein; settings: co-substrate phosphite, 100 mM MOPS pH 7.25, 30 °C
purified protein [2] = substrate: O=[PH](O)O; assay: purified protein; settings: co-substrate NAD+, 100 mM MOPS pH 7.25, 30 °C

Protein	Km (purified protein [1])	kcat (purified protein [1])	Km (purified protein [2])	kcat (purified protein [2])
B1	4.5 (0.9) μM	6.83 (0.43) s^-1	54.9 (6.8) μM	6.83 (0.43) s^-1
B2	19.4 (1.6) μM	3.36 (0.03) s^-1	25.4 (1.2) μM	3.36 (0.03) s^-1
B3	52.2 (3.3) μM	6.57 (0.03) s^-1	81.1 (1.6) μM	6.57 (0.03) s^-1
